Data taken from paper doi:10.1101/2021.06.06.446989.
Like-named read-outs stand apart in the source and are kept apart here.

Columns and labels:
[1] = biological target: RXFP1, wild-type receptor expressed on HEK293T cells (human) (UniProt Q9HBX9); test: saturation binding of Europium-labelled ligand on cells
[2] = biological target: RXFP2F11, chimera of the LDLa and GDxxGWxxxF motif (Met1-Phe51) of RXFP2 and the remainder of RXFP1 (human); test: as above
[3] = biological target: D42A-RXFP1(1-72) (human); test: NMR titration
[4] = biological target: RXFP1(1-72), RXFP1 LDLa module and its 32-residue linker (human); test: NMR titration
[5] = biological target: RXFP2(1-65), RXFP2 LDLa module and its 26-residue linker (human); test: NMR titration
[6] = biological target: RXFP2(1-65)-ExLink2 (human); test: NMR titration
[7] = biological target: W46A-RXFP1(1-72) (human); test: NMR titration
[8] = biological target: RXFP1(1-72)-L7K/K17A (human); test: 15N-CPMG relaxation dispersion NMR
[9] = biological target: RXFP1(1-72), RXFP1 LDLa module and its 32-residue linker (human); test: 15N-CPMG relaxation dispersion NMR
[10] = biological target: RXFP1(1-72), RXFP1 LDLa module and its 32-residue linker (human); test: NMR titration; remark: listed apart in the source
[11] = biological target: RXFP2(1-65)-ExLink2 (human); test: NMR titration; remark: listed apart in the source

UniProt Q9HBX9, sequence (Q9HBX9 whole entry): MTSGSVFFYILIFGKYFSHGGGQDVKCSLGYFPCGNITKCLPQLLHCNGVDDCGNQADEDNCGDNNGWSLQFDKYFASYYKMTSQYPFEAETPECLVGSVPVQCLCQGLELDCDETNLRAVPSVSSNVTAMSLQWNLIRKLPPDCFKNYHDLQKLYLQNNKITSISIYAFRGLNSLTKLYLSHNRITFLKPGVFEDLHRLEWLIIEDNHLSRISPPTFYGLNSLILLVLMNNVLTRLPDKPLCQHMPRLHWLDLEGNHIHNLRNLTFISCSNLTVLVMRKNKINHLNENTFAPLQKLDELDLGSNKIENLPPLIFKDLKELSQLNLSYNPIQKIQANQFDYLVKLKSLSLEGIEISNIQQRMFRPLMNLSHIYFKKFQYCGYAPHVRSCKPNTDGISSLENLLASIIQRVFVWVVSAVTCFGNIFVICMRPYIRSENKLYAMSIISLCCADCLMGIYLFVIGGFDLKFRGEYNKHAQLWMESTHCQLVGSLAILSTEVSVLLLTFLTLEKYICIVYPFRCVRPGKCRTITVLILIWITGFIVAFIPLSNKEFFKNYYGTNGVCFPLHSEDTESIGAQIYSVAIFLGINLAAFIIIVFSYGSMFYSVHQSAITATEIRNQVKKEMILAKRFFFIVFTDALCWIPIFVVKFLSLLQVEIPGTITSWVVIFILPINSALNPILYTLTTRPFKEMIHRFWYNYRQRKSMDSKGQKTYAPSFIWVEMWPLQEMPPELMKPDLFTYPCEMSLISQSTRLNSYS

H2 relaxin, native recombinant (serelaxin), Europium-labelled for the binding assay (ligand)
Kd [1]: 0.0006 µM
Kd [2]: > 0.02 µM

amidated H2 relaxin (both the A and B-chain C-termini amidated) (ligand)
fold decrease in affinity against wild-type RXFP1(1-72) [3]: 4 fold
Kd [4]: 85 µM
Kd [5]: 205 µM
Kd [6]: 171 µM
fold decrease in affinity against wild-type RXFP1(1-72) [7]: 4 fold
Kd [8]: 30 µM
Kd [9]: 25 µM
Kd [10]: 442 µM
Kd [11]: 482 µM
